He/Con_2aH and He/Con_2b data for 9 molecules are collected here from US20150344570A1 (published 2015).

For assay [1], the target named is T1, FcγRIIa H (human, UniProt P12318 34-217).
T1 construct: extracellular domain; also called FcγRIIa type H; 2aH; not shown: His tag at the C terminus
T1 sequence (looked up): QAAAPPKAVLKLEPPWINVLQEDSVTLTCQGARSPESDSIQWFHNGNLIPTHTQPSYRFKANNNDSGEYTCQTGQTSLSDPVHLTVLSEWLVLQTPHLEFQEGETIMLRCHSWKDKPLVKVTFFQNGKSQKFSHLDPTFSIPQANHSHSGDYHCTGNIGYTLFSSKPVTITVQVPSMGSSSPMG
Nature of the assay: SPR (Biacore), antibody captured, FcγR as analyte; binding relative to GpH7-A5/GpH7-B3/GpL16-k0 = 100. The procedure:
(§1) The heterodimerized antibodies He Abs in which one of the H chains was introduced with an alteration were assayed for their binding activities to each activating FcγR and inhibitory FcγR according to the method described in Example 4. […] The activating FcγRs in FIGS. 26, 27, 28, and 29 are FcγRIa, FcγRIIa (R), FcγRIIa (H), and FcγRIIIa, respectively.
(§2) Analysis of interaction between objective antibody and the FcγR was carried out using Biacore T100 (GE Healthcare). HBS-EP+ (GE Healthcare) was used as the running buffer, and the measurement temperature was set to 25° C. Chips produced by immobilizing the antigen peptide by the amine coupling method to a Series S Sencor Chip CM5 (GE Healthcare), or alternatively, chips produced by allowing preliminarily biotinylated antigen peptides to interact with and immobilize onto a Series S Sensor Chip SA (certified) (GE Healthcare) were used. Antibodies of interest were captured onto an antigen peptide-immobilized chip, and allowed to interact to each FcγR diluted with running buffer. To regenerate and repeatedly use the chip, the antibodies captured on the chip were washed off by reacting 10 mM glycine-HCl, pH 1.5.
Background: SPR reads the build-up and loss of mass on a sensor chip optically.

Assay [2] concerns the target T2, FcγRIIb (human, UniProt P31994 43-217).
T2 construct: extracellular domain; also called 2b; not shown: His tag at the C terminus
T2 sequence (looked up): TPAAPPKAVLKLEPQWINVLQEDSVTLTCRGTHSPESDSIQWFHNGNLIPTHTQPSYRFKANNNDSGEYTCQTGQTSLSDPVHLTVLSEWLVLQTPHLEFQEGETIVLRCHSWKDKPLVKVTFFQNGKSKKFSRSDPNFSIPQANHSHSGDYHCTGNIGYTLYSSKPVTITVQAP
The assay is described as above. The procedure:
as §1, §2

B1: GpH7-A5/GpH7-B3 variant S324_09D/GpL16-k0 (antibody, human IgG1, kappa)
heavy 1: not shown
heavy 2: not shown
light: DIVMTQSPLSLPVTPGEPASISCQASESLVHSNRNTYLHWYLQKPGQSPQLLIYKVSNRFSGVPDRFSGSGSGTDFTLKISRVEAEDVGVYYCSQNTHVPPTFGQGTKVEIERTVAAPSVFIFPPSDEQLKSGTASVVCLLNNFYPREAKVQWKVDNALQSGNSQESVTEQDSKDSTYSLSSTLTLSKADYEKHKVYACEVTHQGLSSPVTKSFNRGEC
notes: Heterodimerized IgG1; mutation in the GpH7-B3 chain only; also called He Ab
Consider B1, for which the He/Con_2aH in assay [1] is 106 % of control. The He/Con_2b in assay [2] was 85.8 % of control.

B2: GpH7-A5/GpH7-B3 variant Q295_07I/GpL16-k0 (antibody, human IgG1, kappa)
heavy 1: not shown
heavy 2: not shown
light: DIVMTQSPLSLPVTPGEPASISCQASESLVHSNRNTYLHWYLQKPGQSPQLLIYKVSNRFSGVPDRFSGSGSGTDFTLKISRVEAEDVGVYYCSQNTHVPPTFGQGTKVEIERTVAAPSVFIFPPSDEQLKSGTASVVCLLNNFYPREAKVQWKVDNALQSGNSQESVTEQDSKDSTYSLSSTLTLSKADYEKHKVYACEVTHQGLSSPVTKSFNRGEC
notes: as for B1
For the molecule B2, the He/Con_2aH in assay [1] is 102 % of control. Besides, the He/Con_2b in assay [2] is 84.3 % of control.

B3: GpH7-A5/GpH7-B3 variant I332_19Q/GpL16-k0 (antibody, human IgG1, kappa)
heavy 1: not shown
heavy 2: not shown
light: DIVMTQSPLSLPVTPGEPASISCQASESLVHSNRNTYLHWYLQKPGQSPQLLIYKVSNRFSGVPDRFSGSGSGTDFTLKISRVEAEDVGVYYCSQNTHVPPTFGQGTKVEIERTVAAPSVFIFPPSDEQLKSGTASVVCLLNNFYPREAKVQWKVDNALQSGNSQESVTEQDSKDSTYSLSSTLTLSKADYEKHKVYACEVTHQGLSSPVTKSFNRGEC
notes: as for B1
Turning to B3, the He/Con_2aH in assay [1] was 108 % of control. The He/Con_2b in assay [2] is 94.3 % of control.

B4: GpH7-A5/GpH7-B3 variant I336_10E/GpL16-k0 (antibody, human IgG1, kappa)
heavy 1: not shown
heavy 2: not shown
light: DIVMTQSPLSLPVTPGEPASISCQASESLVHSNRNTYLHWYLQKPGQSPQLLIYKVSNRFSGVPDRFSGSGSGTDFTLKISRVEAEDVGVYYCSQNTHVPPTFGQGTKVEIERTVAAPSVFIFPPSDEQLKSGTASVVCLLNNFYPREAKVQWKVDNALQSGNSQESVTEQDSKDSTYSLSSTLTLSKADYEKHKVYACEVTHQGLSSPVTKSFNRGEC
notes: as for B1
For the molecule B4, in assay [1], the He/Con_2aH was 102 % of control. Besides, the He/Con_2b in assay [2] was 89.8 % of control.

B5: GpH7-A5/GpH7-B3 variant T335_01G/GpL16-k0 (antibody, human IgG1, kappa)
heavy 1: not shown
heavy 2: not shown
light: DIVMTQSPLSLPVTPGEPASISCQASESLVHSNRNTYLHWYLQKPGQSPQLLIYKVSNRFSGVPDRFSGSGSGTDFTLKISRVEAEDVGVYYCSQNTHVPPTFGQGTKVEIERTVAAPSVFIFPPSDEQLKSGTASVVCLLNNFYPREAKVQWKVDNALQSGNSQESVTEQDSKDSTYSLSSTLTLSKADYEKHKVYACEVTHQGLSSPVTKSFNRGEC
notes: as for B1
In the case of B5, the He/Con_2aH in assay [1] was 103 % of control. Besides, the He/Con_2b in assay [2] was 96.7 % of control.

B6: GpH7-A5/GpH7-B3 variant S324_02A/GpL16-k0 (antibody, human IgG1, kappa)
heavy 1: not shown
heavy 2: not shown
light: DIVMTQSPLSLPVTPGEPASISCQASESLVHSNRNTYLHWYLQKPGQSPQLLIYKVSNRFSGVPDRFSGSGSGTDFTLKISRVEAEDVGVYYCSQNTHVPPTFGQGTKVEIERTVAAPSVFIFPPSDEQLKSGTASVVCLLNNFYPREAKVQWKVDNALQSGNSQESVTEQDSKDSTYSLSSTLTLSKADYEKHKVYACEVTHQGLSSPVTKSFNRGEC
notes: as for B1
On to B6, for which, in assay [1], the He/Con_2aH is 102 % of control. In addition, in assay [2], the He/Con_2b is 78.3 % of control.

B7: GpH7-A5/GpH7-B3 variant I336_03V/GpL16-k0 (antibody, human IgG1, kappa)
heavy 1: not shown
heavy 2: not shown
light: DIVMTQSPLSLPVTPGEPASISCQASESLVHSNRNTYLHWYLQKPGQSPQLLIYKVSNRFSGVPDRFSGSGSGTDFTLKISRVEAEDVGVYYCSQNTHVPPTFGQGTKVEIERTVAAPSVFIFPPSDEQLKSGTASVVCLLNNFYPREAKVQWKVDNALQSGNSQESVTEQDSKDSTYSLSSTLTLSKADYEKHKVYACEVTHQGLSSPVTKSFNRGEC
notes: as for B1
On to B7, for which the He/Con_2aH in assay [1] was 102 % of control. Besides, the He/Con_2b in assay [2] was 90.3 % of control.

B8: GpH7-A5/GpH7-B3 variant S324_15Y/GpL16-k0 (antibody, human IgG1, kappa)
heavy 1: not shown
heavy 2: not shown
light: DIVMTQSPLSLPVTPGEPASISCQASESLVHSNRNTYLHWYLQKPGQSPQLLIYKVSNRFSGVPDRFSGSGSGTDFTLKISRVEAEDVGVYYCSQNTHVPPTFGQGTKVEIERTVAAPSVFIFPPSDEQLKSGTASVVCLLNNFYPREAKVQWKVDNALQSGNSQESVTEQDSKDSTYSLSSTLTLSKADYEKHKVYACEVTHQGLSSPVTKSFNRGEC
notes: as for B1
On to B8, for which the He/Con_2aH in assay [1] was 102 % of control. In addition, the He/Con_2b in assay [2] was 88.2 % of control.

B9: GpH7-A5/GpH7-B3 variant S324_04F/GpL16-k0 (antibody, human IgG1, kappa)
heavy 1: not shown
heavy 2: not shown
light: DIVMTQSPLSLPVTPGEPASISCQASESLVHSNRNTYLHWYLQKPGQSPQLLIYKVSNRFSGVPDRFSGSGSGTDFTLKISRVEAEDVGVYYCSQNTHVPPTFGQGTKVEIERTVAAPSVFIFPPSDEQLKSGTASVVCLLNNFYPREAKVQWKVDNALQSGNSQESVTEQDSKDSTYSLSSTLTLSKADYEKHKVYACEVTHQGLSSPVTKSFNRGEC
notes: as for B1
In the case of B9, the He/Con_2aH in assay [1] was 101 % of control. Besides, the He/Con_2b in assay [2] was 89.1 % of control.
